Assays:
rat 6-OHDA model of PD = assay: Neurorestoration study in 6-OHDA model of PD in rats; type: in vivo; conditions: injected intrastriatally 2 weeks after 6-OHDA lesioning; rotations at 2, 4, 6 and 8 weeks post-lesion
ER stressed SCG neurons = assay: Survival of tunicamycin-treated (ER stressed) SCG sympathetic neurons after microinjection; type: cell-based, mice; conditions: for survived neurons as % compared to neurons grown in the presence of NGF: Table 1A (FIG. 14), microinjected into cytoplasm, CDNF (400); for Fold change of survived neurons compared to neurons injected with PBS: data of Table 1 divided by values of PBS
How it was run: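 Newborn mouse SCG neurons grown 5-6 days with 30 ng/ml NGF, then microinjected with CDNF (FL or C-terminal) plasmids (10 ng/ul, EGFP reporter) or proteins (200 ng/ul, Dextran Texas Red). Tunicamycin (2 μM) added next day. Fluorescent survivors counted blindly after 3 days as % of initial; compared with vector or PBS (ANOVA/Dunnett).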

[1] = tested on: rat model of cerebral ischemia; assay: Distal occlusion of the middle cerebral artery as a model of cerebral stroke; type: in vivo
Description: Male Sprague Dawley rats (weight 230-270 g, Envigo, Netherlands) were used for the experiments which were conducted according to the 3R principles of EU directive 2010/63/EU on the care and use of experimental animals, local laws and regulations, and were approved by the national Animal Experiment Board of Finland All experiments were performed in a blinded manner and the rats were assigned to different treatment groups randomly. Rats were anesthesized with chloral hydrate (0.4 g/kg, i.p). A cortical stroke was induced by occluding the distal middle cerebral artery (dMCA) together with a bilateral common carotid artery (CCA) occlusion for 60 min as described previously (Chen, et al., 1986). Briefly, the bilateral CCAs were identified and isolated through a ventral midline cervical incision. Rats were placed in stereotaxic apparatus and a craniotomy was made in the right hemisphere. The right (MCA) was ligated with a 10-0 suture and bilateral common carotids (CCA) were ligated with non-traumatic arterial clamps for 60 minutes. […]
To test the neuroprotective effect of subcutaneous C-CDNF, 50 μg of C-CDNF was given 30-50 min before dMCA occlusion and immediately after reperfusion in volume of 100 μl s.c. Phosphate-buffered saline (PBS) was used as vehicle control. […] The area of infarction in each slice was measured with a digital scanner and ImageJ software. […]

B1: KYEKTLDLASVDLRKMRVAELKQILHSWGEECRACAEKTDYVNLIQELAPKYAATHPKTEL (peptide, listed as Homo sapiens)
chain: KYEKTLDLASVDLRKMRVAELKQILHSWGEECRACAEKTDYVNLIQELAPKYAATHPKTEL
cumulative amount of amphetamine-induced rotations (rat 6-OHDA model of PD): significantly reduces | survived neurons as % compared to neurons grown in the presence of NGF (ER stressed SCG neurons; AVG of exp1-2, tunicamycin 2 μM): 84.37 % NGF | survived neurons as % compared to neurons grown in the presence of NGF (ER stressed SCG neurons; exp1, tunicamycin 2 μM, counted after 3 days): 78.87 % NGF | survived neurons as % compared to neurons grown in the presence of NGF (ER stressed SCG neurons; exp2, tunicamycin 2 μM, counted after 3 days): 89.87 % NGF | Fold change of survived neurons compared to neurons injected with PBS (ER stressed SCG neurons; Table 2, AVG): 2.28 Fold to PBS | Fold change of survived neurons compared to neurons injected with PBS (ER stressed SCG neurons; Table 2, exp1): 2.30 Fold to PBS | Fold change of survived neurons compared to neurons injected with PBS (ER stressed SCG neurons; Table 2, exp2): 2.26 Fold to PBS | rescue of ER stressed SCG sympathetic neurons (result in words) (ER stressed SCG neurons; expressed from microinjected plasmids, tunicamycin 2 μM, living fluorescent neurons counted after three days): rescue | rescue of ER stressed SCG neurons (result in words) (ER stressed SCG neurons; protein or peptide microinjected into the cytoplasm, tunicamycin 2 μM, living fluorescent neurons counted after 3 days): rescue | infarction volume (rostral part of the cerebral cortex) ([1]; 50 μg s.c. 30-50 minutes before dMCA occlusion and right after reperfusion, p<0.05 vs PBS): decreases | smaller lesions than the vehicle treated rats ([1]; 50 μg s.c. before dMCA occlusion and right after reperfusion, n=8-9): about 50%
